Assay results reported in PMC3326337.

Tests used:
[1] = biological target: T1, His-CRP (cAMP receptor protein) (Escherichia coli, UniProt P0ACJ8 1-210); assay: EMSA
[2] = biological target: T1, His-CRP (cAMP receptor protein); assay: DRaCALA
[3] = biological target: T1, His-CRP (cAMP receptor protein); assay: DRaCALA; remark: listed apart in the source
[4] = biological target: Maltose binding protein (MBP) (UniProt P0AEX9 27-396); assay: DRaCALA

T1 sequence (P0ACJ8 whole entry): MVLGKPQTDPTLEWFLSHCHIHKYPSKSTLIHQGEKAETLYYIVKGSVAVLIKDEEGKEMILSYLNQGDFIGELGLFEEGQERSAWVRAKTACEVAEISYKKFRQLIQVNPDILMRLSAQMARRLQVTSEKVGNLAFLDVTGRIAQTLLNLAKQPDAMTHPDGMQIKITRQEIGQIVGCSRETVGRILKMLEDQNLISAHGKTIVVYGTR

B1: ICAP oligo (vl1427/vl1428) (dsDNA)
DNA 1: GCAACGCAATAAATGTGATCTAGATCACATTTTAGGCACCC
DNA 2: GGGGTGCCTAAAATGTGATCTAGATCACATTTATTGCGTTG
- Kd [1]: 0.081 nM
- Kd [2]: 0.036 nM

B2: ICAP 8,10:G-C (gd132/gd133) (dsDNA)
DNA 1: AGGAGGAATAAATCTCATCTAGATGAGATTTTAGAGGAGG
DNA 2: CCTCCTCTAAAATCTCATCTAGATGAGATTTATTCCTCCT
- binding result [3]: no binding

B3: ICAP 40-bp (gd126/gd127) (dsDNA)
DNA 1: AGGAGGAATAAATGTGATCTAGATCACATTTTAGAGGAGG
DNA 2: CCTCCTCTAAAATGTGATCTAGATCACATTTATTCCTCCT
- binding result [3]: binds
- binding result [4]: no binding

B4: ICAP 10:G-C (gd130/gd131) (dsDNA)
DNA 1: AGGAGGAATAAATGTCATCTAGATGACATTTTAGAGGAGG
DNA 2: CCTCCTCTAAAATGTCATCTAGATGACATTTATTCCTCCT
- binding result [3]: no binding
